First the molecules themselves.
B1: bsUBP3 T77C: bsUBP3 77C cysteine mutant (SEQ ID NO: 44), tested as Acrylodan conjugate (conjugate)
chain: MKVGILHSLSGTMAISEVSVHDAELIAIQEINQKGGVLGKKLEPVVEDGASDWPTYAEKMRKLLQQDKVAAVFGGWCSASRKAMLPVVEQNNGLLFYPVQYEGMETSPNIFYTGATTNQQIVPAVDWLLKNKGKKFFLIGSDYVFPRTANKIIKAQVKAGGGEIAGEEYTPLGHTNYSTLVSKIKEKQPDVIFNTLNGDSNVAFFKQLKDAGISADDMPVMSASVAEEEIRGIGPDVLKGHYAVWNYFQTTNTSENQTFVKNYKKMNGDSRVTSDPIEAGYNAVYLWAAAVEKAKSFDVDKVKKAADGISFKAPGGTVKIDGDTQHLYKTVRIGQITGDGQFKEVWNSGEPVKPDPYLKTYDWAKGLSKGGSHHHHHH
modifications: Acrylodan conjugate; bsUBP3_77C (77C substitution mutant with signal peptide replaced with M and a GGSHHHHHH at C-terminus)
B2: bsUBP3 A79C: bsUBP3 79C cysteine mutant (SEQ ID NO: 46), tested as Acrylodan conjugate (conjugate)
chain: B1 chain with C77T, A79C
modifications: Acrylodan conjugate; bsUBP3_79C (79C substitution mutant with signal peptide replaced with M and a GGSHHHHHH at C-terminus)
B3: bsUBP3 L172C: bsUBP3 172C cysteine mutant (SEQ ID NO: 48), tested as Acrylodan conjugate (conjugate)
chain: B1 chain with C77T, L172C
modifications: Acrylodan conjugate; bsUBP3_172C (172C substitution mutant with signal peptide replaced with M and a GGSHHHHHH at C-terminus)
B4: csUBP7 S65C: csUBP7 65C cysteine mutant (SEQ ID NO: 26), tested as Acrylodan and Badan conjugates (conjugate)
chain: MSSSESEKEKSEETIKVGILHSLSGTMSISEVSLKDAELMAIEEINNNGGVLGKKLEPIVEDGACDWPTFAEKAKKLLQKDKVAVIFGAWTSASRKAVLPVVEENNGLLFYPVQYEGLESSPNIFYMGAAPNQQIVPAVKWLFDNGKKRFYLLGSDYVFPRTANKIIKAYLKYLGGVVVGEEYTPLGHTDYSSVINKIKAAKPDVVFNTLNGDSNVAFFKQLKDAGIDANTLPVMSVSIAEEEIKGIGPEYLKGHLVTWNYFQSVDTPENKEFVEKYKKKYGEDRVTDDPIEAAYIGVYLWAKAVEKAGSTDVDKVREAAKGIEFNAPEGPVKIDGDNQHLYKTVRIGEILENGQIRELWKTNKPVKPDPYLKGYEWAQGLSEQGGSHHHHHH
modifications: Acrylodan or Badan conjugate; csUBP7_65C (65C substitution mutant with signal peptide replaced with M and a GGSHHHHHH at C-terminus, and also comprising a C89A substitution)
B5: csUBP7 Q114C: csUBP7 114C cysteine mutant (SEQ ID NO: 34), tested as Acrylodan and Badan conjugates (conjugate)
chain: B4 chain with C65S, Q114C
modifications: Acrylodan or Badan conjugate; csUBP7_114C (114C substitution mutant with signal peptide replaced with M and a GGSHHHHHH at C-terminus, and also comprising a C89A substitution)
B6: csUBP7 S92C: csUBP7 92C cysteine mutant (SEQ ID NO: 30), tested as Acrylodan and Badan conjugates (conjugate)
chain: B4 chain with C65S, S92C
modifications: Acrylodan or Badan conjugate; csUBP7_92C (92C substitution mutant with signal peptide replaced with M and a GGSHHHHHH at C-terminus, and also comprising a C89A substitution)
B7: csUBP7 Y111C: csUBP7 111C cysteine mutant (SEQ ID NO: 33), tested as Acrylodan and Badan conjugates (conjugate)
chain: B4 chain with C65S, Y111C
modifications: Acrylodan or Badan conjugate; csUBP7_111C (111C substitution mutant with signal peptide replaced with M and a GGSHHHHHH at C-terminus, and also comprising a C89A substitution)
B8: csUBP7 V158C: csUBP7 158C cysteine mutant (SEQ ID NO: 38), tested as Acrylodan and Badan conjugates (conjugate)
chain: B4 chain with C65S, V158C
modifications: Acrylodan or Badan conjugate; csUBP7_158C (158C substitution mutant with signal peptide replaced with M and a GGSHHHHHH at C-terminus, and also comprising a C89A substitution)
B9: csUBP7 S238C: csUBP7 238C cysteine mutant (SEQ ID NO: 42), tested as Acrylodan and Badan conjugates (conjugate)
chain: B4 chain with C65S, S238C
modifications: Acrylodan or Badan conjugate; csUBP7_238C (238C substitution mutant with signal peptide replaced with M and a GGSHHHHHH at C-terminus, and also comprising a C89A substitution)
B10: csUBP7 F159C: csUBP7 159C cysteine mutant (SEQ ID NO: 39), tested as Acrylodan and Badan conjugates (conjugate)
chain: B4 chain with C65S, F159C
modifications: Acrylodan or Badan conjugate; csUBP7_159C (159C substitution mutant with signal peptide replaced with M and a GGSHHHHHH at C-terminus, and also comprising a C89A substitution)
B11: csUBP7 Y115C: csUBP7 115C cysteine mutant (SEQ ID NO: 35), tested as Acrylodan and Badan conjugates (conjugate)
chain: B4 chain with C65S, Y115C
modifications: Acrylodan or Badan conjugate; csUBP7_115C (115C substitution mutant with signal peptide replaced with M and a GGSHHHHHH at C-terminus, and also comprising a C89A substitution)
B12: csUBP7 A93C: csUBP7 93C cysteine mutant (SEQ ID NO: 31), tested as Acrylodan and Badan conjugates (conjugate)
chain: B4 chain with C65S, A93C
modifications: Acrylodan or Badan conjugate; csUBP7_93C (93C substitution mutant with signal peptide replaced with M and a GGSHHHHHH at C-terminus, and also comprising a C89A substitution)

Where a chain is given by its changes, count along the chain named. In names and notes the source's numbering stands.

The first experiment is described as follows: Temperature- and urea-dependent fluorescence landscapes of fluorescent conjugates (Roche LightCycler). Conditions: Acrylodan conjugate; fluorescent response to urea. It counts as binding. On the set-up: key: y, yes; n, no. The method, then: We constructed 20 single cysteine mutants in csUBP7, exploring 7 endosteric, 12 peristeric, and 1 allosteric position (FIG. 9). At each position we attached the Prodan-derived fluorophores Acrylodan and Badan, which differ by one methylene group in their thiol-reactive linker. The fluorescent responses of these conjugates was determined initially as a function of urea concentration and temperature (FIG. 10). […] The ligand dependence of the emission spectra shapes was determined for these conjugates (Table 8).
Determination of temperature- and ligand-dependent fluorescence landscapes. […] Urea concentrations were varied from 0-4.8 M in 20 mM KCl, 20 mM MOPS (pH 7.4). […] Temperatures were advanced in 1K steps.
Ratiometric analysis of urea binding. […] 2
For a single urea-binding site, the fractional saturation is given by
[formula] where [L] is the ligand (urea) concentration and Kd the dissociation constant, ^trueKd for ytrue.
To obtain the temperature dependence of the binding reaction, the Kd values of all the individually determined isotherms were fit the Gibbs-Hemholtz equation (Layton and Hellinga, 2010, Biochemistry, 49, 10831-41):
[formula] where ΔGb^•(T) is the standard free energy of binding at 1 M ligand at temperature T,
[formula] Δ^refHb^• and Δ^refSb^• the molar enthalpy and entropy of binding, respectively, at the reference temperature, Tref, and ΔCp,b the heat capacity of the binding reaction.
In the case of B1, the Response result is listed as “y”.

As for B2, the Response result is reported as “y”.

B3: the Response entry is listed as “y”.

For B4, the Response result is on record as “n”.

In the case of B5, the Response result is recorded as “n”.

For the molecule B6, the Response result is listed as “n”.

Turning to B7, the Response result is listed as “n”.

Turning to B8, the Response result is given as “n”.

Take B9: the Response entry is recorded as “n”.

Regarding B10, the Response result is given as “n”.

On to B11, for which the Response entry is “n”.

As to B12, the Response entry is recorded as “y”.

The same experiment, now with this note: Badan conjugate; fluorescent response to urea.
Consider B4, for which the Response result is “y”.

On to B5, for which the Response result was “n”.

With B6, the Response entry was “n”.

For the molecule B7, the Response result is recorded as “n”.

Turning to B8, the Response result was “n”.

For B9, the Response result is listed as “n”.

In the case of B10, the Response result was “n”.

In the case of B11, the Response entry is reported as “n”.

Regarding B12, the Response entry is recorded as “n”.
